Experimental findings from patent publication US20190041402A1 (GOVERNING COUNCIL OF THE UNIVERSITY OF TORONTO, published 2019) are described below.

One experiment addresses T1, rat αKlotho (endogenous) (rat, UniProt Q9Z2Y9 35-983).
T1 sequence (looked up): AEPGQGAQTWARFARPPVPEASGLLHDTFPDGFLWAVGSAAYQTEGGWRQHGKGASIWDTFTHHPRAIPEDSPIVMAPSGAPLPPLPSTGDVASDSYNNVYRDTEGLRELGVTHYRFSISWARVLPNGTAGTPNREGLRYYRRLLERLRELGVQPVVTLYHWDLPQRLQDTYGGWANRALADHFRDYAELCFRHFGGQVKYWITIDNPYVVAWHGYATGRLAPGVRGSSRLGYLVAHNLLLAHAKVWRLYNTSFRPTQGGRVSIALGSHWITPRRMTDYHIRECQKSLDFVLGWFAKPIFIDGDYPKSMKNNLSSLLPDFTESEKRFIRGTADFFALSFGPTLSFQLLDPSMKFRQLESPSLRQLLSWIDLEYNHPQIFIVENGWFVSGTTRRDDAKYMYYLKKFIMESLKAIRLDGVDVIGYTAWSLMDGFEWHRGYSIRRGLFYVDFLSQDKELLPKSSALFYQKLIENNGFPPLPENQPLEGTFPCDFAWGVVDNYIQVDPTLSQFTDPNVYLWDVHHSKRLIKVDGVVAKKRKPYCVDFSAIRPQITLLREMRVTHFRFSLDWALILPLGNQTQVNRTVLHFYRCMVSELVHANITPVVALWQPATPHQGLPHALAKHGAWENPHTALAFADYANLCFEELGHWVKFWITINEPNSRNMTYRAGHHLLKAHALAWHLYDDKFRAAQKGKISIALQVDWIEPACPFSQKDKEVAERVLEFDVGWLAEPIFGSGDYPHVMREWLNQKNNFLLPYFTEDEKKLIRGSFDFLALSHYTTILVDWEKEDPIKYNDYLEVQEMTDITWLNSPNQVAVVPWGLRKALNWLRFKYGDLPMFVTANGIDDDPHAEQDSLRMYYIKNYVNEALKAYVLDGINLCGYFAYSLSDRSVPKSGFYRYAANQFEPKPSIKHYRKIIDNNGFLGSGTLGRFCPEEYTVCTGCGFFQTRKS
The experiment in a line: immunohistochemistry, unfixed frozen rat parathyroid tissue. The procedure:
For labeling, sections were blocked (PBS, 1.5% BSA, 10% goat serum; 40 min) and incubated with the primary antibody sb106 ([…] in blocking solution; 4° C. overnight). After washing (PBS), sections were incubated with the Alexa 546 goat anti-human IgG (1:800 dilution, Invitrogen) for 1 hour at room temperature. After additional washes with PBS, the sections were fixed with 4% paraformaldehyde in PBS, washed with PBS, and mounted and visualized with a Zeiss LSM510 microscope.
Sb106 was highly reactive against αKlotho under native conditions. Immunoblot signals under denaturing conditions against mouse, rat, and human kidney tissue were weak, but in samples from transgenic mice overexpressing αKlotho [79], sb106-Fab detected a band corresponding to the full-length extracellular domain of αKlotho (FIG. 2A). In cultured cells, sb106-Fab was not able to detect αKlotho in immunoblots under denaturing conditions with lysates from NRK cells expressing native αKlotho but it was able to detect overexpressed antigen in cell lysates from HEK293 cells transfected with αKlotho (FIG. 2B). […] Cells were then incubated with sb106-Fab (5 μg/ml in 1% BSA in PBS) for 1 hr. […]

Experiment [1] concerns the target T2, soluble human αKlotho (recombinant) (human, UniProt Q9UEF7 34-981).
T2 construct: also called Hu aKL; recombinant human αKlotho
T2 sequence (looked up): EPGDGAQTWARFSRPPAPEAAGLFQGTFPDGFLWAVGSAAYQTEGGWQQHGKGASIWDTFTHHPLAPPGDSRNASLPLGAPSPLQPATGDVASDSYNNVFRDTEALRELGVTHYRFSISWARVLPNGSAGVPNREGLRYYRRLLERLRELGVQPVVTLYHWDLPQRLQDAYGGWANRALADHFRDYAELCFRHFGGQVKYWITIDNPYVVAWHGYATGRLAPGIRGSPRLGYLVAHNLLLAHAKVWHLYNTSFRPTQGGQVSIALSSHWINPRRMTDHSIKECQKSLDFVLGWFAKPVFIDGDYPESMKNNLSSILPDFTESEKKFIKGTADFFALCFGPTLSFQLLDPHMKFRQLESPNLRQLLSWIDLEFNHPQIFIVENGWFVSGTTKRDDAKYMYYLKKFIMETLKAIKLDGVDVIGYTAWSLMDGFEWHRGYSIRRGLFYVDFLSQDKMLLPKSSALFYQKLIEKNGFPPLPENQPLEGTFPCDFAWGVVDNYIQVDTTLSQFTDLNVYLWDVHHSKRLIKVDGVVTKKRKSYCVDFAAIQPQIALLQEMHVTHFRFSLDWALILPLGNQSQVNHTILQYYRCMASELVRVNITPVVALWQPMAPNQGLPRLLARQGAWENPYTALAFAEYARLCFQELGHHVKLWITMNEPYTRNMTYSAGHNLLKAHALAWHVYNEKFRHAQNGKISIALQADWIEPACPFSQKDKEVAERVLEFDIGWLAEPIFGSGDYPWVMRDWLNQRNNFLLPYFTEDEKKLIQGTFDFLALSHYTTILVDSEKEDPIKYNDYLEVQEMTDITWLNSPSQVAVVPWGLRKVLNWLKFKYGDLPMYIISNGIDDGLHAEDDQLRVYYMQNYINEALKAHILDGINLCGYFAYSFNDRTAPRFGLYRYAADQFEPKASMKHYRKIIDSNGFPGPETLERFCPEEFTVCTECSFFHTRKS
The experiment in a line: SPR (ProteOn XPR36), Fab captured by anti-IgG(H+L), human αKlotho injected in serial dilutions, Langmuir fit. Here is the method: (§1) Estimated affinities against human and mouse antigen for select αKlotho Fabs were obtained by surface plasmon resonance on a ProteOn XPR36 (FIG. 17). Fabs were captured using an anti-IgG(H+L) antibody and serial dilutions of αKlotho were injected. Binding curves were fitted to the Langmuir model. (A) Determined Kon, Koff and KD values. (B) and (C) Binding curves for human and mouse antigen respectively.

The target of experiment [2] is T3, extracellular domain (ECD) of human αKlotho, amino acids E34-S981 with C-terminal 6-His tag (R&D Systems … (human, UniProt Q9UEF7 34-981)).
T3 construct: range 34-981; also called αKlotho (aa34-981); target antigen
T3 sequence: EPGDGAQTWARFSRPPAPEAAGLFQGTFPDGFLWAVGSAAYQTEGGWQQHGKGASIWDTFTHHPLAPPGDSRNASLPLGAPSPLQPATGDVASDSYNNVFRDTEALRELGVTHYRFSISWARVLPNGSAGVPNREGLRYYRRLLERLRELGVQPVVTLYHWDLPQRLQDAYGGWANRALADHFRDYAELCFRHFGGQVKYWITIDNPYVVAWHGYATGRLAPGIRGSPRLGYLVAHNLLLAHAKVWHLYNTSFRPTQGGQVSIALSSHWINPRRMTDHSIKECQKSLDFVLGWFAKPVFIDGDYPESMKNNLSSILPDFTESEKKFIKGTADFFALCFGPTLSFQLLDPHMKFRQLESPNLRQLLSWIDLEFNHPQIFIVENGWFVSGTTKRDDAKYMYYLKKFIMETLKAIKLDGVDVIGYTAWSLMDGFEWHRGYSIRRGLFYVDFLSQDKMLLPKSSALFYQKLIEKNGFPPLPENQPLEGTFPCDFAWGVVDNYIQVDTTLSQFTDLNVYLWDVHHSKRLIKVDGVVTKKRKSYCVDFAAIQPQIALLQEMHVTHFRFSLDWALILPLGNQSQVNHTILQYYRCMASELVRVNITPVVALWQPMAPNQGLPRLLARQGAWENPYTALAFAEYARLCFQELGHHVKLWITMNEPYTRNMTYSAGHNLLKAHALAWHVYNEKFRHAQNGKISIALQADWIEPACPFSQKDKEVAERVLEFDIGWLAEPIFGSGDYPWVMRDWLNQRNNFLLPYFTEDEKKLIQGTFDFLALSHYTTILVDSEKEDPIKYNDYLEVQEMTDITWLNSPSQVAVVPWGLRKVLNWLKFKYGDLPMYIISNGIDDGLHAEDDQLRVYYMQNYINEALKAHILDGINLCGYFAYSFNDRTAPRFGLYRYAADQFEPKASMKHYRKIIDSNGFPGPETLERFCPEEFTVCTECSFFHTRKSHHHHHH
Kind of experiment: SPR, Fab captured by anti-H+L IgG, αKlotho injected at 50 to 6.25 ug/ml, Langmuir fit [continued]. Here is the method:
(§2) Affinity estimates for each of the antibodies were determined by surface plasmon resonance (SPR). Fabs were immobilized using an anti-H+L antibody and serial dilutions of αKlotho were injected.

Experiment [3] concerns the target T3, extracellular domain (ECD) of human …. Kind of experiment: SPR, Fab captured by anti-H+L antibody, αKlotho injected. The procedure: as §2
On the technique in general: In SPR one partner is held on a chip, and binding of the other changes the refractive index at the surface.

Experiment [4] addresses T2, soluble human αKlotho (recombinant). Kind of experiment: SPR (ProteOn XPR36), Fab captured by anti-IgG(H+L), human αKlotho injected in serial dilutions, Langmuir fit [continued) B.]. Here is the method: as §1
Experiment [5] deals with T4, mouse αKlotho (mouse, UniProt O35082 35-982).
T4 construct: also called Mu aKL
T4 sequence (looked up): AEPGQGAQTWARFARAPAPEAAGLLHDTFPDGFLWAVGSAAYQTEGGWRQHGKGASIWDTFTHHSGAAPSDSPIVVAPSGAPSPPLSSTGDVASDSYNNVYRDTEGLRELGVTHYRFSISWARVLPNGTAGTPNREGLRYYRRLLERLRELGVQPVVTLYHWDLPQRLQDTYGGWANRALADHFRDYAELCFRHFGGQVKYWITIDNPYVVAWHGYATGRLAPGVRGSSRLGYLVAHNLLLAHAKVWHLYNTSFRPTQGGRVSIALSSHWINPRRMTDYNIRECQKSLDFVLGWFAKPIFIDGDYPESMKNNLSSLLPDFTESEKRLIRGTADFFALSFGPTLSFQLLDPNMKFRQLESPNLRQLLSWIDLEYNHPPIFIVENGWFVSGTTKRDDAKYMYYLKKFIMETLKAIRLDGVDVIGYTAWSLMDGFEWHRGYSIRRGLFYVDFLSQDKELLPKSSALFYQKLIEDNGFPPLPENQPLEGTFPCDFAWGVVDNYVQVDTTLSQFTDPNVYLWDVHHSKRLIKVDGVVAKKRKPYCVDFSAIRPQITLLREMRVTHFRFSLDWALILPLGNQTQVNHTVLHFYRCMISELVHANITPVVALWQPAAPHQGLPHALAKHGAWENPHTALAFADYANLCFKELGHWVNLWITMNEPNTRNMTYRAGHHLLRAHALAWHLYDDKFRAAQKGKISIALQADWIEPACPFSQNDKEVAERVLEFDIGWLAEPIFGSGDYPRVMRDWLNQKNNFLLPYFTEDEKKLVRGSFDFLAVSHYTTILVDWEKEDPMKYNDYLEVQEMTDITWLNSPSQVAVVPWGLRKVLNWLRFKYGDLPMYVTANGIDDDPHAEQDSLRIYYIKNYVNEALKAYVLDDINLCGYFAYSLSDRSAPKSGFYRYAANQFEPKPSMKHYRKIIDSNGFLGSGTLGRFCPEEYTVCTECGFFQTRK
The experiment in a line: SPR (ProteOn XPR36), Fab captured by anti-IgG(H+L), mouse αKlotho injected in serial dilutions, Langmuir fit. The procedure: as §1

Experiment [6] addresses T4, mouse αKlotho. Kind of experiment: SPR (ProteOn XPR36), Fab captured by anti-IgG(H+L), mouse αKlotho injected in serial dilutions, Langmuir fit [continued) C.]. Here is the method: as §1

By Kd is commonly meant the constant that tells how readily two partners part at equilibrium. What is called koff is the rate constant with which the complex falls apart. The term kon denotes the rate constant with which the complex forms.

B1: sb106 IgG (antibody, V domains shown)
VH: EVQLVESGGGLVQPGGSLRLSCAASGFNISYYSIHWVRQAPGKGLEWVAYISPSYGYTSYADSVKGRFTISADTSKNTAYLQMNSLRAEDTAVYYCARYYVYASHGWAGYGMDYWGQGTLVTVSS
VL: DIQMTQSPSSLSASVGDRVTITCRASQSVSSAVAWYQQKPGKAPKLLIYSASSLYSGVPSRFSGSRSGTDFTLTISSLQPEDFATYYCQQAGYSPITFGQGTKVEIKR
notes: also called sb106 (48) full length IgG
As for B1, the binding result in the experiment with rat αKlotho (endogenous) is reported as “binds”.

B2: anti-αKlotho Fab clone 4811 (Fab, V domains shown)
VH: EVQLVESGGGLVQPGGSLRLSCAASGFNLYYSYMHWVRQAPGKGLEWVASIYSSSSYTSYADSVKGRFTISADTSKNTAYLQMNSLRAEDTAVYYCARSPSWWVSYHSALDYWGQGTLVTVSS
VL: DIQMTQSPSSLSASVGDRVTITCRASQSVSSAVAWYQQKPGKAPKLLIYSASSLYSGVPSRFSGSRSGTDFTLTISSLQPEDFATYYCQQGYALFTFGQGTKVEIKR
notes: Fab (also as Fab-phage); FLAG tag on light chain; also called sb180
For B2, the dissociation constant Kd in experiment [1] was found to be 1.48 nM; in experiment [2], 1.13 nM; in experiment [3], 2.3 nM; in experiment [4] it was 1.48 nM; with mouse αKlotho [5], 19.9 nM; in the experiment with mouse αKlotho [6], 10.3 nM. Further, the koff in experiment [1] came to 0.000516 s⁻¹; in experiment [2], 0.000609 s⁻¹; in experiment [4], 0.000516 s⁻¹; in the experiment with mouse αKlotho [5], 0.00545 s⁻¹; with mouse αKlotho [6], 0.00276 s⁻¹. In addition, the on-rate constant (kon) in experiment [1] was determined as 349000 M⁻¹ s⁻¹; in experiment [2] it was 537000 M⁻¹ s⁻¹; in experiment [4], 349000 M⁻¹ s⁻¹; with mouse αKlotho [5], 273000 M⁻¹ s⁻¹; in the experiment with mouse αKlotho [6], 268000 M⁻¹ s⁻¹.
